The nature of the series: soluble on expression in E. coli; label from the status in PepcDB or PDB records.
In the case of “MVQLFSAFDRETIERNLQEEKFDLVIVGGGITGAGIALDATSRGMSVALVEMGDFASGTSSRSTKLVHGGLRYLQQFEIKEVADLGKERAIVYENGPHVTTPEWMMLPFHKGGNMGKTTASFGIRLYDYLAGVKKNERRKILSAKETLAKNPFVKKDGLKGSGYYVEYRTDDARLTIEVMKKAVELGANAINYTKAEHFLYDDKKQVVGVTVTDRLTGKAYDIKGHRVINAAGPWVDKVRKLDYATNNKHLRLTKGIHLVIDKQKFPMEQAVYFDTPDGRMVFAIPRDKKVYVGTTDTVYDEAVINPKALESDHNYVIKAINYMFPDVHISEKDIESSWAGVRPLIYEEGKDPSEISRKDEVWFSESGLITMAGGKLTGYRKMAEKLLDGVSKTLSKETGKKYKPVQTKHLPISGGDIGGSEQLEAFLSKKAKEGNNRFGWTLEEGREIAKRFGSNIDQLFTYAQEHKDQNETTLPNSLYAELRYSIQHEAVTTPIDFLLRRTGYLLFDMPYLLEWKDAVVDEMAKQFHWSDDVKQTYIEELNIQINDAREPADWHDRLEHHHHHH”, the “soluble on expression in E. coli” value was “soluble”. For “MGHHHHHHSHMAEISDLDRQIEQLRRCELIKESEVKALCAKAREILVEESNVQRVDSPVTVCGDIHGQFYDLKELFRVGGDVPETNYLFMGDFVDRGFYSVETFLLLLALKVRYPDRITLIRGNHESRQITQVYGFYDECLRKYGSVTVWRYCTEIFDYLSLSAIIDGKIFCVHGGLSPSIQTLDQIRTIDRKQEVPHDGPMCDLLWSDPEDTTGWGVSPRGAGYLFGSDVVAQFNAANDIDMICRAHQLVMEGYKWHFNETVLTVWSAPNYCYRCGNVAAILELDEHLQKDFIIFEAAPQETRGIPSKKPVADYFL” the value was “not soluble”; for “TWILTADSPSLLGTVDVVTRYLFEQRCYVTEHHSFDDRLAQRFFIRVEFRAGDGFDEASFRAGLAERVAPFGMRTELTAPGYRSQVAIMVSKADHCLNDLLYRQRIGQLPMDVVAVISNHPDLEPLARWHGIPYHHFPLDPNDKPAQEARVWQVLEESGAELVILARYMQVLSPELCRRLDGWAINIHHSLLPGFKGAKPYHQAYQKGVKLVGATAHYINNDLDEGPIIAQGVETVDHAHYPEDLIAKGRDIECLTLARAVGYHIERRVFLNANRTVVL”, “not soluble”; for “MSLSHLLELYINFKGEAKEAIAFYEDVFDTKCQNLMTFGEAPEDPEHPINDEIKDLVMNASIIIEGTYVMISDVPDMFGFEVTEGNNLSLVVSTDDDEKIDRLFKRLSEGGTVTMPFLKLFGPKSMVPEGGSHHHHHH”, “soluble”. With “MGSDKIHHHHHHMSYYLRSASLTNYVEVARAVGLDPHQFLRAAKISRDVLLDPDIRIPAKKVGRLLDDSARAAHVDDFGLRMAELRQVSNLGPLAFVVREQPTLRRALESMVRYMGVQNEALAMRMEESEGLLMIRLHILNDQPGTLRQATDLAVGVVYRLLSVCLGASWRPRSICFTHAAPASQATFQRVFGMPCVFNQDFDGIVCVAADLEAPLPSYDPVMAHQVKRYLGTLLAQANTTLPDKVRELVHVLLPSGMCSVDRVAQHLGVDRRTVHRRLAQENTSYSDIVNAARASLVVRYIDNRERPLSEVATLLGFSSLSAFSRWFGGQFGCSVSKWRLQHEGQGRNTA” the entry was “not soluble”. With “MIKQIGTVAVYVEDQQKAKQFWTEKVGFDIAADHPMGPEASWLEVAPKGAETRLVIYPKAMMKGSEQMKASIVFECEDIFGTYEKMKTNGVEFLGEPNQMEWGTFVQFKDEDGNVFLLKE”, the “soluble on expression in E. coli” value was “not soluble”. With “MGSDKIHHHHHHMKGQLFVICGPSGAGKTSIIKEVLKRLDNVVFSVSCTTRPKRPHEEDGKDYFFITEEEFLKRVERGEFLEWARVHGHLYGTLRSFVESHINEGKDVVLDIDVQGALSVKKKYSNTVFIYVAPPSYADLRERILKRGTEKEADVLVRLENAKWELMFMDEFDYIVVNENLEDAVEMVVSIVRSERAKVTRNQDKIERFKMEVKGWKKL” the entry was “not soluble”. For “MLMSLAQCPGFLFAHREECTVEIKKIINPRYTESGAVDCDVFFDDRDQAVPYTATADDVAPTGQQIWQELQSGKWGEIAPFTVTPEMLEAAREARRQEIEAWRTEQEAKPFTFEWNGRTWNADASSVARLSPVVMLAKSVAAQTHMVWSDADNQQVKLSMPELEELAAAMVQAQVDRNDEIYRRQREMKEELSSLDDLASIRAFDVK” the value was “not soluble”; for “MAHHHHHHSLAYGNINQPFSLESLPDELIPENLYQIETDSSRVFQRHQCRRLAHLLLFQLLKIAGKSTALLSQIHRTESGRPYFLDERIDFNISHSGDWVAVILDIRNEEKSAVGIDIEFPKIRNFTALMEHIAPKEEIDWFHHQQDSLNAFYRCWCLREAVLKSQGFGIVKLSNVRHFPEQQKIFSDYCPQGQLWFTDELPIYLAAFVNHQEKLPHFYEWNRESLQIKELEKYVLYEVNEG”, “soluble”; for “MGSDKIHHHHHHMSERLDENFSRAIDLMLACTGKIIISGMGKSGIIGQKIAATLSSTGTTAIFLHPAEAAHGDLGVVSEGDTVICLSKSGMTEELNFILPALRERKATIIAFTGNPRSYLAMNADVVLDTGVEQEACPYDLAPTSSTTAMLAMGDALAICLMKKKNFTDQEFALTHPKGSLGKQLTMRVGDVMATGDALPVVSEDAMLSDLILEMTSKRYGVSGVVDAEGKLTGIFTDGDLRRLVQTGESFLDKKAVEVMTPNPKTVAPDMKAKACLELLETHRITQLMVCDEKRCPVGIVHIHDLVTLGL”, “not soluble”. For “MSSDIDELRREIDIVDVISEYLNLEKVGSNYRTNCPFHPDDTPSFYVSPSKQIFKCFGCGVGGDAIKFVSLYEDISYFEAALELAKRYGKKLDLEKISKDEKVYVALDRVCDFYRESLLKNREASEYVKSRGIDPKVARKFDLGYAPSSEALVKVLKENDLLEAYLETKNLLSPTKGVYRDLFLRRVVIPIKDPRGRVIGFGGRRIVEDKSPKYINSPDSRVFKKGENLFGLYEAKEYIKEEGFAILVEGYFDLLRLFSEGIRNVVAPLGTALTQNQANLLSKFTKKVYILYDGDDAGRKAMKSAIPLLLSAGVEVYPVYLPEGYDPDEFIKEFGKEELRRLINSSGELFETLIKTARENLEEKTREFRYYLGFISDGVRRFALASEFHTKYKVPMEILLMKIEKNSQEKEIKLSFKEKIFLKGLIELKPKIDLEVLNLSPELKELAVNALNGEEHLLPKEVLEYQVDNLEKLFNNILRDLQKSGKKRKKRGLKNVNT” the value was “soluble”; for “MALKNVPFRSEVLAWNSDNLADYFRKLNYRDCEKAVKKYHIDGARFLNLTENDIQKFPKLRMPLLSKLSQDINKNEERRSIFTRKPQIPRFLEETESHEEDDGGWSSFEDDYESPNDDDPDGEDDGDYESPNEEEQALVDDAADYEPPPSNNEEALQSSILPPNSFHNTNSMYIDRPPTGKVSQQPPVPPLRPKPALPPLPTGRNHSPLSPPHPNHEEPSRSGNNKTAKLPAPSIDRSTKPPLDRSLAPLDREPFILGKKPPFSDKPSAPLGREHLPKIQKPPLPPAMDRHERNERLGPVTTRKPPVPRHGRGPDRRENDEDDVHQRPLPQPSLPSMSSNTFPSRSVQPSSKNTFPLAHMPGAFSESNIGFQQSASLPPYFSQGPGNRPPLRSEGRNLPLPVPNRPQPPSPGEEETPLDEEWYVSYITRPEAEAALRKINQDGTFLVRDSSKKTANNPYVLMVLYKDKVYNIQIRYQEESQVYLLGTGLRGKEDFLSVSDIIDYFRKMPLLLIDGKNRGSRYQCTLTHAAGCL”, “soluble”; for “MTRPHQPRIDLNHGFLRFIRRNQVDRDEYNRVHEERKSEIRERIGSSDSSQDGEEKAQSNVYVPPHLRRQKKENEEKFSALKASRSQSQSDTGSEEGEGASGGGEASCPIQQKQKAFDENVRRQVRRRIERTHPTVDDICIVLANYSLQEAASKNSENSNEDLFELVLTLKSGEQKTIGVPRNTQAARLAKSLSREHHFSDSQCRNLRIFIEEQLELRFAREKSTATSSDASIPGSPTSSSESSIIEFSA”, “not soluble”.

Take “MSLKPRVVDFDETWNKLLTTIKAVVMLEYVERATWNDRFSDIYALCVAYPEPLGERLYAETKIFLESHVRHLYRYWEEYSKGADYMDCLYRYLNTQYIKKNKLTEADIQYGYGGVDMNEPLMEIGELALDMWRKLMVEPLQNILIRMLLREIKNDRGGEDPNQKVIHGVINSFVHVEQYKKKFPLKFYQGIFVSPFLTETGEYYKQEASNLLQESNCSQYMEKVLGRLKDEEIRCRKYLHPSSYTKVIHECQQRMVADHLQFLHSECHSIIQQERKNDMANMYVLLRAVSSGLPHMIEELQKHIHDEGLRATSNLTQEHMPTLFVESVLEVHGKFVQLINTVLNGDQHFMSALDKALTSVVNYREPKSVCKAPELLAKYCDNLLKKSAKGMTENEVEDKLTSFITVFKYIDDKDVFQKFYARMLAKRLIHGLSMSMDSEEAMINKLKQACGYEFTSKLHRMYTDMSVSADLNNKFNNFIRNQDTVIDLGISFQIYVLQAGAWPLTQAPSSTFAIPQELEKSVQMFELFYSQHFSGRKLTWLHYLCTGEVKMNYLGKPYVAMVTTYQMAVLLAFNNSETVSYKELQDSTQMNEKELTKTIKSLLDVKMINHDSEKEDIDAESSFSLNMSFSSKRTKFKITTSMQKDTPQELEQTRSAVDEDRKMYLQAAIVRIMKARKVLRHNALIQEVISQSRARFNPSISMIKKCIEVLIDKQYIERSQASADEYSYVA”: the “soluble on expression in E. coli” value is given as “soluble”. For “MEIDGGPPPFCGVAVDDSYDKSEQHEYDEVDDSPDSTSLPLPSASRSRSVTPVKDMAAGHEAVPEASDNNEKGDTMTTALSQDEFTGFQNSEIQKEEDDDDDEWGDFGEAVVAAAPIQARPQSPPPSLKMDGFNNEDDDDDDDWGAFDQARPSTDRTESSPNSSRSQEARHQQSLDEWGAFENSNDLKANGDEWQAEFSSASDVPPPPSDTVLENLELLDEMLENVEFWHDGFQEECREEEESPEMDVVDIPALFDSENLVEMVNSFEVERQRDSRLWLSLRLVEEAISLKFDWNNSEIRKNHLKSLKINPVTAKKEPRAMNSFFDTSNLLLPTPIQATTTSSSTESSHDSSATATNPKTSSSSPPSSVIDSPSVPAVDFDWDTSGLTNPMNRASKHLHELSKKCRNLVCSVSTNCINLLKCC” the value was “not soluble”. Regarding “SLYQVVLGKVSTLSAGQLPDALIAQAPQGVRRASWLAGRVLLSRALSPLPEMVYGEQGKPAFSAGAPLWFNLSHSGDTIALLLSDEGEVGCDIEVIRPRDNWRSLANAVFSLGEHAEMEAERPEQQLAAFWRIWTRKEAIVKQRGGSAWQIVSVDSTLPSALSVSQCQLDTLSLAVCTPTPFTLTPQTITKAL”, the “soluble on expression in E. coli” value is “not soluble”. Turning to “MDGFQLGNNSPKEITVFCDESRPEALRAASITQRYLCIGSIWVDRERVREVNEEIRALQIKYSKMGEVKWGKVSPSSIQFNCELIDLFFDERFNLQFRAIVVDNQKVDLSYHNNDQELGFYKFYYQMLKHKLINGCSYRIYCDLKTNKMRGRASTLEHYLQTYCLGSVEMVQLLPSNDLPLMQLTDLLLGAVSTKFNFRIPKSPAKNEVISTIERHIGHQIQPTRKNEQKFNVFCIEPGMGR”, the “soluble on expression in E. coli” value was “not soluble”. With “SSSSDESEVKEAPKEEAKADKPKVSAPAQRGSDFANIGPMYPLDPFTLNLLSDSGSRYVKCTIELEQNSELLKPELDKKVPVIRDIIIRTLTAKTFEEVSTQKGKERLKDELVGKINEILTDGFIKNVYFTDFVVS” the entry was “not soluble”; with “MSLKLLIVENDRDTAAALTTSLVAQQFTVDTASDSRSALELAEATEYDLIVLDVMLPDENGIRLCRQLRTQNQQEPILLLTRKVNPADRIAGFEAGADDYITKPYELSELLARIRALLRRGSTVLTKVLCWGQLQLDPNNCEVMCQGKGLHLTPKEYKLLELFLRHPRRIFDRRTLLDRICSIDECPGEEAITTQIRGLRRKLQMAGLNSDPIETLYGLGYRLKSEGHHHHHH”, “not soluble”.

Values taken from the DeepSol protein solubility set.
